According to publication PMC2814116 (Journal of Experimental Botany, 2009):

Molecular target: the molecule itself
Assay: SEC

B1: Recombinant PCNA2 protein of Arabidopsis thaliana (AtPCNA2) (natural protein, UniProt Q9ZW35 1-264, looked up)
chain: MLELRLVQGSLLKKVLEAVKDLVNDANFDCSTTGFSLQAMDSSHVALVSLLLRSEGFEHYRCDRNLSMGMNLGNMSKMLKCAGNDDIITIKADDGSDTVTFMFESPTQDKIADFEMKLMDIDSEHLGIPDAEYHSIVRMPSGEFSRICKDLSSIGDTVVISVTKEGVKFSTAGDIGTANIVLRQNTTVDKPEDAIVIEMNEPVSLSFALRYMNSFTKATPLSETVTISLSSELPVVVEYKVAEMGYIRYYLAPKIEEEEDTKPE
B1: binds.
